# Test results reported in PMC7352350, “Molecular Interactions Stabilizing the Promatrix Metalloprotease-9·Serglycin Heteromer” (International Journal of Molecular Sciences, 2020).
# T1: recombinant human His-tagged serglycin (human, UniProt P10124 28-158)
# T1 construct: serglycin core protein, human, the tag stands instead of the signal peptide; no GAG chains; numbers count on: the mature protein (1-131); also called Ht-SG; SG core protein; source: bought: ProSpec (produced in Escherichia coli)
# T1 sequence (looked up): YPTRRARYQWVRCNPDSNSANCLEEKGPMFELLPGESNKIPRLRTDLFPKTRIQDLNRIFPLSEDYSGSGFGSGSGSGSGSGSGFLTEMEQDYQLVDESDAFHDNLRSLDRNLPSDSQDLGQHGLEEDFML
# B1: FnII peptide 15 (peptide, UniProt P14780 253-272, looked up)
# peptide: LPWCSTTANYDTDDRFGFCP
# notes: MMP-9 FnII module (A225-D390), spot 15 of the 20-mer walk with two-residue shift; source: synthetic peptide on a cellulose membrane
# B2: FnII peptide 21 (peptide, UniProt P14780 265-284, looked up)
# peptide: DDRFGFCPSERLYTQDGNAD
# notes: MMP-9 FnII module (A225-D390), spot 21 of the 20-mer walk with two-residue shift; source: synthetic peptide on a cellulose membrane
# B3: HPX peptide 10 (peptide, UniProt P14780 539-558, looked up)
# peptide: YWRFSEGRGSRPQGPFLIAD
# notes: MMP-9 HPX domain (F521-D707), spot 10 of the 20-mer walk with two-residue shift; source: synthetic peptide on a cellulose membrane
# B4: HPX peptide 12 (peptide, UniProt P14780 543-562, looked up)
# peptide: SEGRGSRPQGPFLIADKWPA
# notes: MMP-9 HPX domain (F521-D707), spot 12 of the 20-mer walk with two-residue shift; source: synthetic peptide on a cellulose membrane
# B5: HPX peptide 19 (peptide, UniProt P14780 557-576, looked up)
# peptide: ADKWPALPRKLDSVFEERLS
# notes: MMP-9 HPX domain (F521-D707), spot 19 of the 20-mer walk with two-residue shift; source: synthetic peptide on a cellulose membrane
# B6: HPX peptide 38 (peptide, UniProt P14780 595-614, looked up)
# peptide: VLGPRRLDKLGLGADVAQVT
# notes: MMP-9 HPX domain (F521-D707), spot 38 of the 20-mer walk with two-residue shift; source: synthetic peptide on a cellulose membrane
# B7: FnII peptide 14 (peptide, UniProt P14780 251-270, looked up)
# peptide: DGLPWCSTTANYDTDDRFGF
# notes: MMP-9 FnII module (A225-D390), spot 14 of the 20-mer walk with two-residue shift; source: synthetic peptide on a cellulose membrane
# B8: HPX peptide 76 (peptide, UniProt P14780 671-690, looked up)
# peptide: AYFCQDRFYWRVSSRSELNQ
# notes: MMP-9 HPX domain (F521-D707), spot 76 of the 20-mer walk with two-residue shift; source: synthetic peptide on a cellulose membrane
# B9: HPX peptide 69 (peptide, UniProt P14780 657-676, looked up)
# peptide: VPLDTHDVFQYREKAYFCQD
# notes: MMP-9 HPX domain (F521-D707), spot 69 of the 20-mer walk with two-residue shift; source: synthetic peptide on a cellulose membrane
# B10: FnII peptide 64 (peptide, UniProt P14780 351-370, looked up)
# peptide: FTFLGKEYSTCTSEGRGDGR
# notes: MMP-9 FnII module (A225-D390), spot 64 of the 20-mer walk with two-residue shift; source: synthetic peptide on a cellulose membrane
# B11: FnII peptide 19 (peptide, UniProt P14780 261-280, looked up)
# peptide: NYDTDDRFGFCPSERLYTQD
# notes: MMP-9 FnII module (A225-D390), spot 19 of the 20-mer walk with two-residue shift; source: synthetic peptide on a cellulose membrane
# B12: HPX peptide 71 (peptide, UniProt P14780 661-680, looked up)
# peptide: THDVFQYREKAYFCQDRFYW
# notes: MMP-9 HPX domain (F521-D707), spot 71 of the 20-mer walk with two-residue shift; source: synthetic peptide on a cellulose membrane
# B13: FnII peptide 65 (peptide, UniProt P14780 353-372, looked up)
# peptide: FLGKEYSTCTSEGRGDGRLW
# notes: MMP-9 FnII module (A225-D390), spot 65 of the 20-mer walk with two-residue shift; source: synthetic peptide on a cellulose membrane
# B14: FnII peptide 22 (peptide, UniProt P14780 267-286, looked up)
# peptide: RFGFCPSERLYTQDGNADGK
# notes: MMP-9 FnII module (A225-D390), spot 22 of the 20-mer walk with two-residue shift; source: synthetic peptide on a cellulose membrane
# B15: HPX peptide 37 (peptide, UniProt P14780 593-612, looked up)
# peptide: ASVLGPRRLDKLGLGADVAQ
# notes: MMP-9 HPX domain (F521-D707), spot 37 of the 20-mer walk with two-residue shift; source: synthetic peptide on a cellulose membrane
# B16: FnII peptide 18 (peptide, UniProt P14780 259-278, looked up)
# peptide: TANYDTDDRFGFCPSERLYT
# notes: MMP-9 FnII module (A225-D390), spot 18 of the 20-mer walk with two-residue shift; source: synthetic peptide on a cellulose membrane
# B17: HPX peptide 41 (peptide, UniProt P14780 601-620, looked up)
# peptide: LDKLGLGADVAQVTGALRSG
# notes: MMP-9 HPX domain (F521-D707), spot 41 of the 20-mer walk with two-residue shift; source: synthetic peptide on a cellulose membrane
# B18: FnII peptide 20 (peptide, UniProt P14780 263-282, looked up)
# peptide: DTDDRFGFCPSERLYTQDGN
# notes: MMP-9 FnII module (A225-D390), spot 20 of the 20-mer walk with two-residue shift; source: synthetic peptide on a cellulose membrane
# B19: HPX peptide 84 (peptide, UniProt P14780 687-706, looked up)
# peptide: ELNQVDQVGYVTYDILQCPE
# notes: MMP-9 HPX domain (F521-D707), spot 84 of the 20-mer walk with two-residue shift; source: synthetic peptide on a cellulose membrane
# B20: HPX peptide 85 (peptide, UniProt P14780 688-707, looked up)
# peptide: LNQVDQVGYVTYDILQCPED
# notes: MMP-9 HPX domain (F521-D707), last spot (85) of the 20-mer walk; source: synthetic peptide on a cellulose membrane
# B21: HPX peptide 70 (peptide, UniProt P14780 659-678, looked up)
# peptide: LDTHDVFQYREKAYFCQDRF
# notes: MMP-9 HPX domain (F521-D707), spot 70 of the 20-mer walk with two-residue shift; source: synthetic peptide on a cellulose membrane
# B22: FnII peptide 16 (peptide, UniProt P14780 255-274, looked up)
# peptide: WCSTTANYDTDDRFGFCPSE
# notes: MMP-9 FnII module (A225-D390), spot 16 of the 20-mer walk with two-residue shift; source: synthetic peptide on a cellulose membrane
# B23: HPX peptide 11 (peptide, UniProt P14780 541-560, looked up)
# peptide: RFSEGRGSRPQGPFLIADKW
# notes: MMP-9 HPX domain (F521-D707), spot 11 of the 20-mer walk with two-residue shift; source: synthetic peptide on a cellulose membrane
# B24: HPX peptide 18 (peptide, UniProt P14780 555-574, looked up)
# peptide: LIADKWPALPRKLDSVFEER
# notes: MMP-9 HPX domain (F521-D707), spot 18 of the 20-mer walk with two-residue shift; source: synthetic peptide on a cellulose membrane
# Target: T1, recombinant human His-tagged serglycin
# Assay: peptide or protein array; 20-mer walks of the MMP-9 FnII module and HPX domain on cellulose, two-residue shift; 10 uL of 1 ng/uL Ht-SG in 10 mL blocking buffer, 1-4 h, room temperature; antibodies against SG
# Conditions: both partners purified
row,Binder,binding result
1,B1,binds
2,B2,binds
3,B3,binds
4,B4,binds
5,B5,binds
6,B6,binds
7,B7,binds
8,B8,binds
9,B9,binds
10,B10,binds
11,B11,binds
12,B12,binds
13,B13,binds
14,B14,binds
15,B15,binds
16,B16,binds
17,B17,binds
18,B18,binds
19,B19,binds
20,B20,binds
21,B21,binds
22,B22,binds
23,B23,binds
24,B24,binds
